Experimental data taken from the nanobody polyreactivity screen of Harvey et al. (2022).

Assay: yeast display, Sf9 membrane polyspecificity reagent, FACS + sequencing; frameworks hold sequencing errors
Outline: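 Sorting gates, low and high (top ~1%), were placed on anti-HA fluorescence to track expression and on streptavidin fluorescence to track reagent binding. A clone's polyreactivity label is taken from the gate it came out of. The reagent was 10% biotinylated, detergent-solubilized Sf9 membrane, applied for 1 hour at 4 °C to galactose-induced yeast display cells.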

Sequence	polyreactivity (PSR sort gate)
QVQLVESGGGLVQAGGSLRLSCAASGSTFSSNAMGWYRQAPGKERELVAAIDRGGSTYYADSVKGRFTISRDNAKNTVYLQMNSLKPEDTAVYYCAKGFDFRRRYDYWGQGTQVTVSS	low polyreactivity
QVQLVESGGGLVQAGGSLRLSCAASGSTFSSYAMAWYRQAPGKERELVAAISSVGVDTYYADSVKGRFTISRDNAKNTVYLQMISLKPEDTAVYYCAAGRYGWWRHYFVFKYDYWGQGTQVTVSS	low polyreactivity
QVQLVESGGGLVQAGGSLRLSCAASGSTFSSYAMGWYIQAPGKERELVAAITSSGGTTYYSDSVKGRFTISRDNAKNTVYLQMNSLKPEDTAVYYCAAADVIFWLYYYWGQGTQVTVSS	low polyreactivity
QVQLVESGGGLVQAGGSLRLSCAASGSTFSSYAMGWYRPAPGKERELVAAITSSGGSTYYADSVKGRFTISRDNAKNTVYLQMNSLKPEDTAVYYCAAADVIFWLYYYWGQGTQVTVSS	low polyreactivity
QVQLVESGGGLVQAGGSLRLSCAASGSTFSSYAMGWYRQAPGKERELVAAINWSGTRTYYADSVKGRFTISRDNAKNTVYLQMNSLKPEDTAVYYCAAVLSLSSRQGVITKGDYWGQGTQVTVSS	low polyreactivity
QVQLVESGGGLVQAGGSLRLSCAASGSTFSSYAMGWYRQAPGKERELVAAISSSGVRTYYADSVKGRFTISRDNAKNSVYLQMNSLKPEDTAVYYCKLTLLTVNRTGMTTWGQGTQVTVSS	high polyreactivity
QVQLVESGGGLVQAGGSLRLSCAASGSTFSSYAMGWYRQAPGKERELVAGIAWGGSSTDYADSVKWRFTISRDTAKNTVYLQMNSLKPEDTAVYYCARRYRRGWSTLDYWGQGTQVTVSS	low polyreactivity
QVQLVESGGGLVQAGGSLRLSCAASGSTFSTNAMGWYRQAPAKERELVAAISYSGGSTYYADSVKGRFTISRDNAKNTVYLQMLSLKPEDTAVYYCAADGYYYNSGGRYYEFYYWGQGTQVTVSS	low polyreactivity
QVQLVESGGGLVQAGGSLRLSCAASGSTFSTNAMGWYRQAPGKESELVASITRSGGSTYYADSVKGRFTISRDNAKNTVYLQMNSLKPEDTAVYYCNADGYYDYDYGYWGQGTQVTVSS	low polyreactivity
QVQLVESGGGLVQAGGSLRLSCAASGSTFSTNAMGWYSPAPGKERELVAASTVSGGRTYYADSVKGRFTISRDNAKNTVYLQMNSLKPEDTAVYYCATDTSRLSIFGYVSFYYWGQGTQVNVSS	low polyreactivity
QVQLVESGGGLVQAGGSLRLSCAASGSTFSVNAMGWYRQAPGKEREFVAAIRWPGGSTYYADSVKGRFTFSRDKAKNTVYLQMNSLKPEDTAVYYCAARIKYRYDWGQGTQVTVSS	low polyreactivity
QVQLVESGGGLVQAGGSLRLSCAASGSTFSVYAMGWYRQAPGKERELVAAISSSGANTYYADSVKGRFTISRDNAKNTVYLQMNSLKPEDTAVYYCAAYVSGGYEYDYWGQGTQVTVSS	low polyreactivity
QVQLVESGGGLVQAGGSLRLSCAASGSTFSVYAMGWYRQAPGKERELVATISWGGGITYYADSVKGRFTISRDNAKNTVYLQMNSLKPEDTAVYYCAAYARYPRYYYWGQGTQVTVSS	high polyreactivity
QVQLVESGGGLVQAGGSLRLSCAASGSTFSWNTMGWYRQAPGKERELVAAINSGGSTYYADSVKGRFTISRDNAKNTVYLQMNSLKPEDTAVYYCAARTNYYGRFDYWGQGTQVTVSS	low polyreactivity
QVQLVESGGGLVQAGGSLRLSCAASGSTFSWYAMGWYRQAPGKERELVAAISYSGGTYYADSVKGRFTISRDNEKNTVYLQMNSLKPEYNAVYYCAALRTRYGYDYWGQGTQVTLSS	high polyreactivity
QVQLVESGGGLVQAGGSLRLSCAASGSTFSYAMGWYRQAPGKERELVAAITTSGGSTYYADSVKGRFTISRDNAKNTVYLQMNSLKPVDTAVDYCARERYYRRFYRPRRYDYWGQGTQVTVSS	low polyreactivity
QVQLVESGGGLVQAGGSLRLSCAASGSTFSYNAMGWYRQAPGKERELVAAISFISGSTYYADSVKGRFTISRDNAKNTVYLQMNSLKPEDTAVYYCNAGRTRRRDYYWQYDYWGQGTQVTVSS	high polyreactivity
QVQLVESGGGLVQAGGSLRLSCAASGSTFSYYAMGWYRQAPGKERELVAAIRKSGGSTYYADSVKGRFTISRDNAKNTVYLQMNSLKPEDTAVYSCAAVFSYYGWYSRYDYWGQGTQVTVSS	low polyreactivity
QVQLVESGGGLVQAGGSLRLSCAASGSTFSYYAMGWYRQAPGKERELVAAITSSGGRTYYADSVKGRFTISRDNAKYTVYLQMNSLKPEDTAVYYCATRKPRYQRAFDSWGQGTQVTVSA	high polyreactivity
QVQLVESGGGLVQAGGSLRLSCAASGSTFSYYAMGWYRQAPGKERELVAAITTSGGRTYYADSVKGRFTISRDNAKFTVYLQMNSLKPEDTAVYYCNARSGRLGDYWGQGTQVTVSS	high polyreactivity
QVQLVESGGGLVQAGGSLRLSCAASGSTFSYYAMGWYRQAPGKERELVAVISWSGGSTYYADSVKGRFTISRDNAKNTVYLQMNSLKPEDTAVYYCAARGYVRWYNRYDYWGQGTQVTVSS	low polyreactivity
QVQLVESGGGLVQAGGSLRLSCAASGSTFSYYTMGWYRPAPGKERELVAAITRRGDSTYADSVKGRFTISRDNAKNTGYLQMNSLKPEATAVYYCAADASVGVSGMDYWGQGTQVTVSS	low polyreactivity
QVQLVESGGGLVQAGGSLRLSCAASGSTFTAKAMGWYRQAPGKERELVASISARDGSTYADSVKGRFTISRDNAKNTVYLQMNSLKPEDTAVYYCNAAYFHIFPYDYDYWGQGTQVTVSS	low polyreactivity
QVQLVESGGGLVQAGGSLRLSCAASGSTFTANAMGWYRQAPWKERELVASISAREGSTYADSVKGRFTISRDNANNTVYLQMNSLKPEDTAVYYCNAAYFHIFPYDYDYWGQCTQVTVSS	low polyreactivity
QVQLVESGGGLVQAGGSLRLSCAASGSTFTAYAMGWYRQAPGKERELVAAISKRSGGTYYADSVKGRFTISRDNAKNTVYLQMNSLKPEDTAVYYCGQGTQVTVSS	low polyreactivity
QVQLVESGGGLVQAGGSLRLSCAASGSTFTAYAMGWYRQAPGKERELVAVITSGGGTFYADSVKGRFTISRDNAKNTVYLQMNSLKPEDTAVYYCNAARTYPGTYIYRYGYWGQGTQVTVSP	high polyreactivity
QVQLVESGGGLVQAGGSLRLSCAASGSTFTFNAMGWYRQAPGKERELVAAITSRGGSTYYADSVKGRFTISRDNAKNTVYLQMNSLKPEDTAVYYCAATLRGQKTRREYWGQGTQVTVSS	high polyreactivity
QVQLVESGGGLVQAGGSLRLSCAASGSTFTGNAMGWSRQAPGKERELVAAITDRGGSTYADSVKGRFTISRDNAKNTVYLQMNSLKPEDSAVYYCATRRDLHDRYEYDYWGQGTQVTVSS	low polyreactivity
QVQLVESGGGLVQAGGSLRLSCAASGSTFTGNAMGWYRQAPGKERELVAAISRSGGSTFYADSVKGRFTISRDNAKNTVYLQINSLKPEDTAVYYCAAPVYLYGTVGRGDYWGQGTQVTVSS	high polyreactivity
QVQLVESGGGLVQAGGSLRLSCAASGSTFTGNAMGWYRQAPGKERELVAAITKGGSRTYYADSVKGRFTISRDNAKNTVYLQMNSLKPEDTAVYYCAATSRGTDYWGQGTQVTVSS	high polyreactivity
